What all share (conditions): remark: other sources report otherwise
Experiment [1] has as its target T1, recombinant soluble homotrimeric HA of A/Hong Kong/2108/03 (H9N2) (Influenza A virus A/HK/2108/2003(H9N2)). Nature of the experiment: trimeric HA microarray, transfection supernatant set 2.
Experiment [2] addresses T2, recombinant soluble homotrimeric HA of A/northern shoveler/California/HKWF115/07 (H6) (Influenza A virus A/northern shoveler/California/HKWF115/2007(H6N1)). The description is as above.
The target in experiment [3] is T3, recombinant soluble homotrimeric HA of A/Hong Kong/1073/99 (H9N2) (Influenza A virus A/Hong Kong/1073/99 (H9N2)). The description is as above.
The target of experiment [4] is T1, recombinant soluble homotrimeric HA of …. Kind of experiment: trimeric HA microarray, transfection supernatant set 4.
In experiment [5] the target is T2, recombinant soluble homotrimeric HA of …. The experiment is described as above.
Experiment [6] concerns the target recombinant soluble homotrimeric HA of A/Indonesia/5/05 (H5N1) (Influenza A virus A/Indonesia/5/2005(H5N1)). The experiment is described as above.
Experiment [7] concerns the target recombinant soluble homotrimeric HA of A/Solomon Islands/3/06 (H1N1) (Influenza A virus A/Solomon Islands/3/2006(H1N1)). The experiment is described as above.
Experiment [8] addresses recombinant soluble homotrimeric HA of A/Netherlands/219/03 (H7N7) (Influenza A virus A/Netherlands/219/03(H7N7)). The description is as above.
Experiment [9] concerns the target recombinant soluble homotrimeric HA of A/Vietnam/1203/04 (H5N1) (Influenza A virus A/VietNam/1203/2004(H5N1)). Described as above.
The target of experiment [10] is recombinant soluble homotrimeric HA of A/chicken/Vietnam/NCVD-016/08 (H5N1) (Influenza A virus A/chicken/Vietnam/NCVD-016/2008(H5N1)). The description is as above.
The target in experiment [11] is recombinant soluble homotrimeric HA of A/Egypt/3300-NAMRU3/08 (H5N1) (Influenza A virus A/Egypt/3300-NAMRU3/2008(H5N1)). The experiment is described as above.
Experiment [12] addresses recombinant soluble homotrimeric HA of A/South Carolina/1/18 (H1N1) (Influenza A virus A/South Carolina/1/18 (H1N1)). Described as above.
Experiment [13] deals with recombinant soluble homotrimeric HA of A/Japan/305/57 (H2N2) (Influenza A virus A/Japan/305/1957(H2N2)). The description is as above.
In experiment [14] the target is recombinant soluble homotrimeric HA of A/California/4/09 (H1N1) (Influenza A virus A/California/04/2009(H1N1)). The experiment is described as above.
Experiment [15] addresses recombinant soluble homotrimeric HA of A/Anhui/1/05 (H5N1) (Influenza A virus A/Anhui/1/2005(H5N1)). The description is as above.
For experiment [16], the target named is T3, recombinant soluble homotrimeric HA of …. The experiment is described as above.
Experiment [17] deals with T2, recombinant soluble homotrimeric HA of …. Kind of experiment: trimeric HA microarray, transfection supernatant set 3.
Experiment [18] addresses T3, recombinant soluble homotrimeric HA of …. The description is as above.
Experiment [19] concerns the target recombinant soluble homotrimeric HA of A/swine/Ontario/01911-2/99 (H4N6) (Influenza A virus A/Swine/Ontario/01911-2/99 (H4N6)). Kind of experiment: trimeric HA microarray, transfection supernatant set 4.
The target of experiment [20] is recombinant soluble homotrimeric HA of A/Wisconsin/67/05 (H3N2) (Influenza A virus A/Wisconsin/67/2005(H3N2)). The experiment is described as above.
In experiment [21] the target is recombinant soluble homotrimeric HA of A/duck/Yangzhou/02/05 (H8N4) (Influenza A virus A/duck/Yangzhou/02/2005(H8N4)). The experiment is described as above.

B1: TCN-523 (5248_A17) (antibody, V domains shown)
VH: QVQLVQSGAEVKKPGSSVKVSCKASGGSFSNYAFSWVRQAPGQGLEWMGGTIPLLGTTNYAQKFQGRVTISADQFTSTAYMELGSLRSEDTAVYYCTRRKMTTAFDSWGQGTLVTVSS
VL: QPVLTQPPSASASLGASVTLTCTLSSAYSNYKVDWYQQRPGKGPRFVMRVGTGGIVGSKGDGIPDRFSVLGSGLNRYLTIKNIQEEDESDYHCGADHGSGSNFVSPYVFGGGTKLTVL
On to B1, for which the Trimeric HA Binding: RLU in [1] was determined as 18 RLU; in experiment [2], 21200 RLU; in experiment [3] it was 31300 RLU; in experiment [4], 38 RLU; in experiment [5], 25100 RLU; in experiment [6] it was 24500 RLU. Further, the Trimeric HA Binding: RLU in experiment [7] is 371 RLU; in [8], 443 RLU; in experiment [9], 30900 RLU; in experiment [10] it was 24000 RLU; in [11] it was 33400 RLU; in experiment [12], 23000 RLU. Moreover, the Trimeric HA Binding: RLU was 3840 RLU in [13]; 28800 RLU in experiment [14]; 48 RLU in experiment [15]; 24600 RLU in experiment [16]; 29400 RLU in [17]; 24200 RLU in experiment [18].

B2: TCN-536 (5095_N01) (antibody, V domains shown)
VH: QVQLQQWGAGLLKPSETLSLTCAVYGGSFSVSGYYWSWIRQPPGRGLEWIGEISHGGSTNYNPSLKSRVTISVDTTKNQFSLRLSSVTAADTAVYYCARGTDPDTEVYCRVGNCAAFDYWGQGSLVTVSS
VL: EIILAQSPGTLSLSPGERATLSCRASQFVSTRSLAWYQQRPGQAPRLLIYGASSRATGIPDRFSGSGSGTDFTLTISRLEPEDFAVYYCQHYGYSPRYAFGQGSKVEIK
Consider B2, for which the Trimeric HA Binding: RLU in [19] was 168 RLU; in experiment [5], 95 RLU; in [8] it was 246 RLU; in experiment [9], 182 RLU; in experiment [20] it was 20600 RLU; in [10], 19 RLU. The Trimeric HA Binding: RLU in [11] turned out to be 97 RLU; in experiment [12], 39 RLU; in experiment [21], 48 RLU; in experiment [13], 260 RLU; in experiment [14], 49 RLU; in [15], 18 RLU.

B3: TCN-534 (5249_B02) (antibody, V domains shown)
VH: QVQLVQSGAEVKKPGSSVKVSCRESGGTFNGYTITWVRQAPGQGLEWMGGIIPMMGTVNYAQKLQGRVTITTDYFTKTAYMDLNNLRSEDTAMYYCVKIRYTGQQLLWGQGTLVTVSS
VL: DIQMTQSPSTLSASIGDRVTITCRASQSIASWLAWYQQKPGKAPKLLIYEAVNLESGVPSRFSGSGSGTDFTLTISSLQPDDFATYFCQHYGTISQTFGGGTKVEIK
As for B3, the Trimeric HA Binding: RLU in experiment [19] came out at 264 RLU; in experiment [4], 27 RLU; in experiment [5] it was 21300 RLU; in experiment [6], 948 RLU; in experiment [7], 60 RLU; in experiment [8], 361 RLU. The Trimeric HA Binding: RLU in experiment [9] stood at 23700 RLU; in [10], 11400 RLU; in experiment [11], 8310 RLU; in experiment [12], 11800 RLU; in experiment [21] it was 79 RLU; in experiment [13] it was 14700 RLU. In addition, the Trimeric HA Binding: RLU in experiment [14] was found to be 27000 RLU; in [15], 20 RLU; in experiment [16] it was 731 RLU.

(Values after US20150086555A1.)
